Publication PMC9792439 (Biochimica et biophysica acta. General subjects, 2022)

Molecular target: GST-tagged wild type human UBQLN2 (human, UniProt Q9UHD9 1-624)
Experiment: pull-down

GST-tagged wild type human UBQLN2, sequence (Q9UHD9 whole entry): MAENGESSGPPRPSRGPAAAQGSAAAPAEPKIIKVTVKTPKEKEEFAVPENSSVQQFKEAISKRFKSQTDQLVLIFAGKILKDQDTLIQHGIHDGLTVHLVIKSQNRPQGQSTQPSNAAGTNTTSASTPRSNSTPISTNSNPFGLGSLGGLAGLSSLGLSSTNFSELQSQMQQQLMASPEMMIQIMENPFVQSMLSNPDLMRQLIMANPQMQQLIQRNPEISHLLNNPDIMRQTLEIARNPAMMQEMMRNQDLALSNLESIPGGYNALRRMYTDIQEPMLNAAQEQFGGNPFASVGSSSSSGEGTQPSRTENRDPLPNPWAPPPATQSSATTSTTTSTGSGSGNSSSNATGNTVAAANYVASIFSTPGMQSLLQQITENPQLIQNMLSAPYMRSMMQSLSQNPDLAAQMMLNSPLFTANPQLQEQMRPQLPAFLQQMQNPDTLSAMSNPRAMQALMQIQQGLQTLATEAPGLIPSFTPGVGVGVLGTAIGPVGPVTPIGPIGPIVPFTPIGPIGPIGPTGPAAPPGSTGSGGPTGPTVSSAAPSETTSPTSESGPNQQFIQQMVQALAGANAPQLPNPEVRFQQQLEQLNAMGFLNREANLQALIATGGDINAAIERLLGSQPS

- binding result: binds
B1: HSPA1B ATP-binding domain (1 to 385 aa) with 6 His tag (domain or fragment)
chain: not shown
